Protein production data for nine sequences are collected here from a protein production outcome set (Wang et al. 2014).

A short description of this data set: label from the status in PepcDB records.

For “MTSREDEIRDFLATHGYADWNRTPLAGDASSRRYQRLRSPTGAKAVLMDWSPEEGGDTQPFVDLAQYLRNLDISAPEIYAEEHARGLLLIEDLGDALFTEVINNDPAQEMPLYRAAVDLLIHLHDAQTPELARLDPETLSEMTRLAFSEYRYAILGDAAEDNRKRFEHRFAQILSAQLEGDMVFVHRDFHAQNLLWLPEREGLARVGVIDFQDAKLGHRAYDLVSLLQDARRDVPAQVEAQMIDHYIQATGVDESHFRSAYAVIAVQRNMRILGIFARLSQRFGKRHYIEFVPRVWAHFERGLAHPALASAAEEILNALPAPAPEVLERLRA”, the protein production result is “not failed”.
The value for “MTSRFMLIFAAISGFIFVALGAFGAHVLSKTMGGVEMGWIQTGLEYQAFHTLAILGLAVAMQRRISIWFYWSSVFLALGTVLFSGSLYCLALSHLRLWAFVTPVGGVSFLAGWALMLVGAIRLKRKGVSHE” was “failed”; that for “MTSSLQPDASRDAQREQVIAQLQQVIQRVPEQSEFTNTRRYQLLGPLFTLISLGMLAWGIQQGKTGMLLCGLFLSALFALVTWQHRHAGQHAFMRLTRRQLFVDSLSAPVNLTDVVDVHVKDEGLLTLQQLTLRPGSPLPTHRPVRQVFGNQAMALKSPEPHIRIHSAGLMSGGRKLAIDDIAALLDAYCQAANAQQQLDELQGRG” was “failed”.
As to “MTSSPELARAVAATLARHVTDVVICPGSRNSPLSLELIARDDIRVHTRIDERSAAFLALGLARSSKRHVAVVTTSGTAVANCAPAMIEAAYSHTPLIMVSADRPERLHGTGANQTIEQRGIFNVVDTDHVVDITDLNSISFARNVIHINVALDVPLVDVLPEVGDPVERVREVIEV”, the protein production entry is listed as “failed”.
The value for “MTSSTETTATTPQVAVNDIGNEEAFLAAIDETIKYFNDGDIVDGVIVKVDRDEVLLDIGYKTEGVIPSRELSIKHDVDPNEVVAVGDEIEALVLQKEDKEGRLILSKKRAQYERAWGTIEKIKEEDGIVTGTVIEVVKGGLILDIGLRGFLPASLVEMRRVRDLQPYVGKELEAKIIELDKNRNNVVLSRRAWLEQTQSEVRQTFLTTLQKGQVRSGVVSSIVNFGAFVDLGGVDGLVHVSELSWKHIDHPSEVVEVGQEVTVEVLDVDMDRERVSLSLKATQEDPWQQFARTHQIGQVVPGKVTKLVPFGAFVRVDEGIEGLVHISELAERHVEIPEQVVQVNDEIFVKVIDIDLERRRISLSLKQANEAFGADPSTVEFDPTLYGMAASYDDQGNYIYPEGFDPETNDWLEGYETQREAWETQYAEAQTRFEQHQAQVIKSREADEKAAAEGVDTAGAAPAASGGGGGGSYSSEGGDNSGALASDEALAALREKLAGGQS” was “failed”; that for “MTSTFNPRECKLSKQEGQNYGFFLRIEKDTEGHLVRVVEKCSPAEKAGLQDGDRVLRINGVFVDKEEHMQVVDLVRKSGNSVTLLVLDGDSYEKAVKTRVDLKELGQSQKEQGLSDNILSPVMNGGVQTWTQPRLCYLVKEGGSYGFSLKTVQGKKGVYMTDITPQGVAMRAGVLADDHLIEVNGENVEDASHEEVVEKVKKSGSRVMFLLVDKETDKRHVEQKIQFKRETASLKLLPHQPRIVEMKKGSNGYGFYLRAGSEQKGQIIKDIDSGSPAEEAGLKNNDLVVAVNGESVETLDHDSVVEMIRKGGDQTSLLVVDKETDNMYRLAHFSPFLYYQSQELPNGSVKEAPAPTPTSLEVSSPPDTTEEVDHKPKLCRLAKGENGYGFHLNAIRGLPGSFIKEVQKGGPADLAGLEDEDVIIEVNGVNVLDEPYEKVVDRIQSSGKNVTLLVCGKKAYDYFQAKKIPIVSSLADPLDTPPDSKEGIVVESNHDSHMAKERAHSTASHSSSNSEDTEM” was “failed”; that for “MTSTVEFINRWQRIALLSQSLLELAQRGEWDLLLQQEVSYLQRIETVMEKQTPPGITRSIQDMVAGYIKQTLDNEQLLKGLLQQRLDELSSLIGQSTRQKSLNNAYGRLSGMLLVPDASGAS” was “failed”.
The value for “MTSYIILKHLHMTTAYLTITLFALRLLLDAVGRPGWRQTPLRFIPHINDTILLVAAIALVFVAGYASAMPGWLITKIVLLFGYIIAGVFALKTTVGKPARIVAAVLALVQVSAIFHLAMAKPF” was “failed”.
The value for “MTTAKRDTYTPETLLSVAVQVFIERGYDGTSMEHLSKAAGISKSSIYHHVTGKEELLRRAVSRALDELFGILDEEHARVGTAAERLEYVVRRMVEVLMAELPYVTLLLRVRGNTGTERWALERRREFDHRVAALLKDAAAEGDVRADVEVRLATRLVFGMINSIVEWYRPEGPDGRSDASGASGVSGAGEREVVDAVARLVFGGLRKAS” was “not failed”.
